Laboratory results published in article PMC2132610 (The Journal of Cell Biology, 1997).

Molecular target: the molecule itself
Experiment: sucrose velocity gradient sedimentation

B1: AOX with the COOH-terminal LARF replaced by RSC (AOX–RSC, pHWO41) (enzyme, P. pastoris)
chain: MAIPEEFDILVLGGGSSGSCIAGRLANLDHSLKVGLIEAGENNLNNPWVYLPGIYPRNMKLDSKTASFYTSNPSPHLNGRRAIVPCANVLGGGSSINFMMYTRGSASDYDDFQAEGWKTKDLLPLMKKTETYQRACNNPDIHGFEGPIKVSFGNYTYPVCQDFLRASESQGIPYVDDLEDLVTAHGAEHWLKWINRDTGRRSDSAHAFVHSTMRNHDNLYLICNTKVDKIIVEDGRAAAVRTVPSKPLNPKKPSHKIYRARKQIVLSCGTISSPLVLQRSGFGDPIKLRAAGVKPLVNLPGVGRNFQDHYCFFSPYRIKPQYESFDDFVRGDAEIQKRVFDQWYANGTGPLATNGIEAGVKIRPTPEELSQMDESFQEGYREYFEDKPDKPVMHYSIIAGFFGDHTKIPPGKYMTMFHFLEYPFSRGSIHITSPDPYAAPDFDPGFMNDERDMAPMVWAYKKSRETARRMDHFAGEVTSHHPLFPYSSEARALEMDLETSNAYGGPLNLSAGLAHGSWTQPLKKPTAKNEGHVTSNQVELHPDIEYDEEDDKAIENYIREHTETTWHCLGTCSIGPREGSKIVKWGGVLDHRSNVYGVKGLKVGDLSVCPDNVGCNTYTTALLIGEKTATLVGEDLGYSGEALDMTVPQFKLGTYEKTGRSC
- stoichiometry N: 8

B2: wild-type alcohol oxidase of Pichia pastoris (AOX-WT) (enzyme, P. pastoris, UniProt F2QY27 1-663, looked up)
chain: MAIPEEFDILVLGGGSSGSCIAGRLANLDHSLKVGLIEAGENNLNNPWVYLPGIYPRNMKLDSKTASFYTSNPSPHLNGRRAIVPCANVLGGGSSINFMMYTRGSASDYDDFQAEGWKTKDLLPLMKKTETYQRACNNPDIHGFEGPIKVSFGNYTYPVCQDFLRASESQGIPYVDDLEDLVTAHGAEHWLKWINRDTGRRSDSAHAFVHSTMRNHDNLYLICNTKVDKIIVEDGRAAAVRTVPSKPLNPKKPSHKIYRARKQIVLSCGTISSPLVLQRSGFGDPIKLRAAGVKPLVNLPGVGRNFQDHYCFFSPYRIKPQYESFDDFVRGDAEIQKRVFDQWYANGTGPLATNGIEAGVKIRPTPEELSQMDESFQEGYREYFEDKPDKPVMHYSIIAGFFGDHTKIPPGKYMTMFHFLEYPFSRGSIHITSPDPYAAPDFDPGFMNDERDMAPMVWAYKKSRETARRMDHFAGEVTSHHPLFPYSSEARALEMDLETSNAYGGPLNLSAGLAHGSWTQPLKKPTAKNEGHVTSNQVELHPDIEYDEEDDKAIENYIREHTETTWHCLGTCSIGPREGSKIVKWGGVLDHRSNVYGVKGLKVGDLSVCPDNVGCNTYTTALLIGEKTATLVGEDLGYSGEALDMTVPQFKLGTYEKTGLARF
- stoichiometry N: 8
